According to US20220306729A1 (published 2022):

B1: GRLR/LS (antibody)
heavy: EVQLLESGGGLVQPGGSLRLTCATSGFTFRDYAMSWVRQAPGKGLEWVSSYSGIDDSTYYADSVKGRFTISRDNSKSTLSLHMNSLRAEDSALYFCAKDRGPRGVGELFDSWGQGTLVTVSSASTKGPSVFPLAPSSKSTSGGTAALGCLVKDYFPEPVTVSWNSGALTSGVHTFPAVLQSSGLYSLSSVVTVPSSSLGTQTYICNVNHKPSNTKVDKRVEPKSCDKTHTCPPCPAPELLRGPSVFLFPPKPKDTLMISRTPEVTCVVVDVSHEDPEVKFNWYVDGVEVHNAKTKPREEQYNSTYRVVSVLTVLHQDWLNGKEYKCKVSNKARPAPIEKTISKAKGQPREPQVYTLPPSREEMTKNQVSLTCLVKGFYPSDIAVEWESNGQPENNYKTTPPVLDSDGSFFLYSKLTVDKSRWQQGNVFSCSVLHEALHSHYTQKSLSLSPG
light: DIQMTQSPSTLSASVGDRVTITCRASQSISKWLAWYQQKPGKAPKLLIYTTSTLKSGVPSRFSGSGSGTEFTLTISSLQPDDFATYYCQHFYSVPWTFGQGTKVEIKRTVAAPSVFIFPPSDEQLKSGTASVVCLLNNFYPREAKVQWKVDNALQSGNSQESVTEQDSKDSTYSLSSTLTLSKADYEKHKVYACEVTHQGLSSPVTKSFNRGEC
B2: Z037 (antibody, V domains shown)
VH: QVQLQESGPGLVKPSETLSLTCSVSGYFISSGHYWGWIRQSPGKGLEWIASIYQSGSKFQTGNTYYNPSLESRVTISMDTSKNQFSLKLSSVTAADTAVYFCARDARSRSWDRTGFFGPWGQGILVTVSS
VL: EIVLTQSPGTLSLSPGERATLSCRASQSLSSSFLAWYQQKPGQSPRLLIYGTSSRDTGIPDRFSGSGSGTDFTLTISRLEPEDSAVYYCQQYGSSWGTFGQGTKLEIK
B3: Z012 (antibody, V domains shown)
VH: QVQLVQSGAEVKKSGASVKVSCKASGYSFTTNYIHWVRQAPGQGPEWMGIINPRGGSTTYAQKFQGRVLMTSDTSTSTVYMELSSLRSEDRAVYYCARGKNHQTTVAVLSWYYGMDVWGQGTTVTVSS
VL: DIQMTQSPSSVSASVGDRVTITCRASQGISSWLAWYQQKPGKAPKLLISAASSLQSGVPSRFSGSGSGTDFTLTISNLQPEDFATYFCQQANSFPYTFGQGTKLEIK
B4: Z010 (MEX105_88) (antibody, V domains shown)
VH: EVQLLESGGGLVQPGGSLRLSCAASGFTFSNYAMAWVRQAPGKGLEWVSLIYSGDDSTYYADFVKGRFTISRHNSKNTLSLQMNSLRAEDTAIYYCVKDRGTGWSSIVHWGQGTLVTVSS
VL: DIQMTQSPSTLSASVGDRVTITCRASQTISNWLAWYQQKPGKAPKLLIYQASSLESGVPSRFSGSGSGTEFTLTISSLQPDDFATYYCQQYSTYWTFGQGTKVEIK

Tests used:
Human FcRn = test: SPR
[1] = target: ZIKV envelope domain III (ZEDIII), polyhistidine-AviTag, made in HEK-293-6E cells; test: ELISA

Binder	Kd (Human FcRn) [nM]	EC50 [1] [µg/mL]
B1	5.2	
B2		> 0.4
B3		0.2
B4		> 0.4
